Assay results reported in paper PMC10397247.
Read-outs that look alike come from different tables or passages of the source.

T1: P2-AA-1HAA-D
T1 chain: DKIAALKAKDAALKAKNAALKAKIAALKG

T2: P2-AA
T2 chain: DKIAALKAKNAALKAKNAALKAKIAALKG

T3: P2-AA-1HAA-T
T3 chain: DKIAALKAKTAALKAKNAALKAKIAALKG

T4: P2-AA-1HAA-I
T4 chain: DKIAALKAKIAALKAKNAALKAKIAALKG

T5: P2-AA-1HAA-V
T5 chain: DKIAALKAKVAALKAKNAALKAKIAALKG

T6: P2-AA-1HAA-E
T6 chain: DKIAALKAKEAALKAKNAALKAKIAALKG

T7: P2-AA-1HAA-S
T7 chain: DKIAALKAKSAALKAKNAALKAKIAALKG

T8: P2-AA-1HAA-R
T8 chain: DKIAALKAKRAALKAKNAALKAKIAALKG

T9: O5-bP
T9 chain: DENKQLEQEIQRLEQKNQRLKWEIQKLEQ

T10: O4-bP
T10 chain: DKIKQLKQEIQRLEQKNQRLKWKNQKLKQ

T11: O9-bP
T11 chain: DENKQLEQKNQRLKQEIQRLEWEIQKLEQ

T12: O6-bP
T12 chain: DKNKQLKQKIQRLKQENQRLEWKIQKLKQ

T13: O7-bP
T13 chain: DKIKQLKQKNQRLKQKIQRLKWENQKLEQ

T14: O8-bP
T14 chain: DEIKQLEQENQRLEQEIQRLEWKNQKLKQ

T15: 4H796-bH
T15 chain: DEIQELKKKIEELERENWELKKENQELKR

T16: 4H2859-bH
T16 chain: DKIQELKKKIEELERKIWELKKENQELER

T17: 4H3381-bH
T17 chain: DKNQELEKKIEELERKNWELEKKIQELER

T18: 4H3297-bH
T18 chain: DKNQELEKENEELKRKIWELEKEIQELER

T19: 4H932-bH
T19 chain: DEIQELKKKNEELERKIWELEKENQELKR

T20: 4H264-bH
T20 chain: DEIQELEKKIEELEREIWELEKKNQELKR

T21: O8-bA
T21 chain: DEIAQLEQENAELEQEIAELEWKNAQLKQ

T22: 4H349-bH
T22 chain: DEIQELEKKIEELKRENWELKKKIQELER

T23: 4H56-bH
T23 chain: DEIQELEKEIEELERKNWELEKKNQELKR

T24: 4H949-bH
T24 chain: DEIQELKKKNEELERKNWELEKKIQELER

T25: 4H2760-bH
T25 chain: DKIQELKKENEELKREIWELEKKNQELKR

T26: 4H3041-bH
T26 chain: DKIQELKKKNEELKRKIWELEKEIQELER

T27: 4H730-bH
T27 chain: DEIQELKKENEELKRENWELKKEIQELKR

T28: 4H2931-bH
T28 chain: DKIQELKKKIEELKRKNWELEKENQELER

T29: 4H3364-bH
T29 chain: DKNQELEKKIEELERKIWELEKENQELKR

T30: 4H3010-bA
T30 chain: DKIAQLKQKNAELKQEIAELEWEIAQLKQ

T31: 4H40-bH
T31 chain: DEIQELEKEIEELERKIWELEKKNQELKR

T32: O16-bN
T32 chain: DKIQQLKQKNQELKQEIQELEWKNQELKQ

T33: 4H4073-bA
T33 chain: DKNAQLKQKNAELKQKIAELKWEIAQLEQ


How the values were obtained:
P2-AA-1HAA-D = target: T1, P2-AA-1HAA-D; test: two-hybrid library CCmax;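 also: natural log of median RNA to DNA barcode read ratio; higher means stronger binding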
P2-AA = target: T2, P2-AA; test: two-hybrid library CCmax; details: mean of both orientations;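 also: natural log of median RNA to DNA barcode read ratio; higher means stronger binding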
P2-AA-1HAA-T = target: T3, P2-AA-1HAA-T; test: two-hybrid library CCmax; details: mean of both orientations;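 also: natural log of median RNA to DNA barcode read ratio; higher means stronger binding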
P2-AA-1HAA-I = target: T4, P2-AA-1HAA-I; test: two-hybrid library CCmax; details: mean of both orientations;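 also: natural log of median RNA to DNA barcode read ratio; higher means stronger binding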
P2-AA-1HAA-V = target: T5, P2-AA-1HAA-V; test: two-hybrid library CCmax; details: mean of both orientations;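 also: natural log of median RNA to DNA barcode read ratio; higher means stronger binding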
P2-AA-1HAA-E = target: T6, P2-AA-1HAA-E; test: two-hybrid library CCmax; details: mean of both orientations;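 also: natural log of median RNA to DNA barcode read ratio; higher means stronger binding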
P2-AA-1HAA-S = target: T7, P2-AA-1HAA-S; test: two-hybrid library CCmax; details: mean of both orientations
P2-AA-1HAA-R = target: T8, P2-AA-1HAA-R; test: two-hybrid library CCmax; details: mean of both orientations
O5-bP = target: T9, O5-bP; test: two-hybrid library CCNG1
O4-bP = target: T10, O4-bP; test: two-hybrid library CCNG1
O9-bP = target: T11, O9-bP; test: two-hybrid library CCNG1
O6-bP = target: T12, O6-bP; test: two-hybrid library CCNG1
O7-bP = target: T13, O7-bP; test: two-hybrid library CCNG1
O8-bP = target: T14, O8-bP; test: two-hybrid library CCNG1
4H796-bH = target: T15, 4H796-bH; test: two-hybrid library CCNG1
4H2859-bH = target: T16, 4H2859-bH; test: two-hybrid library CCNG1
4H3381-bH = target: T17, 4H3381-bH; test: two-hybrid library CCNG1
4H3297-bH = target: T18, 4H3297-bH; test: two-hybrid library CCNG1
4H932-bH = target: T19, 4H932-bH; test: two-hybrid library CCNG1
4H264-bH = target: T20, 4H264-bH; test: two-hybrid library CCNG1
O8-bA = target: T21, O8-bA; test: two-hybrid library CCNG1
4H349-bH = target: T22, 4H349-bH; test: two-hybrid library CCNG1
4H56-bH = target: T23, 4H56-bH; test: two-hybrid library CCNG1
4H949-bH = target: T24, 4H949-bH; test: two-hybrid library CCNG1
4H2760-bH = target: T25, 4H2760-bH; test: two-hybrid library CCNG1
4H3041-bH = target: T26, 4H3041-bH; test: two-hybrid library CCNG1
4H730-bH = target: T27, 4H730-bH; test: two-hybrid library CCNG1
4H2931-bH = target: T28, 4H2931-bH; test: two-hybrid library CCNG1
4H3364-bH = target: T29, 4H3364-bH; test: two-hybrid library CCNG1
4H3010-bA = target: T30, 4H3010-bA; test: two-hybrid library CCNG1
4H40-bH = target: T31, 4H40-bH; test: two-hybrid library CCNG1
O16-bN = target: T32, O16-bN; test: two-hybrid library CCNG1
4H4073-bA = target: T33, 4H4073-bA; test: two-hybrid library CCNG1

| Binder | interaction score (P2-AA-1HAA-D; mean of both orientations) | interaction score (P2-AA-1HAA-T) | interaction score (P2-AA-1HAA-I) | interaction score (P2-AA-1HAA-V) | interaction score (P2-AA-1HAA-E) | interaction score (P2-AA-1HAA-S) | interaction score (P2-AA-1HAA-R) | interaction score (4H796-bH) | interaction score (4H2859-bH) | interaction score (4H3381-bH) | interaction score (4H3297-bH) | interaction score (4H932-bH) | interaction score (4H349-bH) | interaction score (4H56-bH) | interaction score (4H949-bH) | interaction score (4H2760-bH) | interaction score (4H3041-bH) | interaction score (4H730-bH) | interaction score (4H2931-bH) | interaction score (4H3364-bH) | other results |
| --- | --- | --- | --- | --- | --- | --- | --- | --- | --- | --- | --- | --- | --- | --- | --- | --- | --- | --- | --- | --- | --- |
| DEIAALEAEAAALEAENAALEAEIAALEG [P1-AA-1HAA-A] | 1.87 | 1.64 | 2.26 | 2.11 | 1.86 | 2 | 1.48 | – | – | – | – | – | – | – | – | – | – | – | – | – | interaction score (P2-AA): 2.29 |
| DEIAALEAEHAALEAENAALEAEIAALEG [P1-AA-1HAA-H] | – | 2.13 | 1.98 | 1.33 | 0.913 | 1.91 | 1.34 | – | – | – | – | – | – | – | – | – | – | – | – | – | interaction score (P2-AA-1HAA-D): 1.5 |
| DKIKQLKQEIQRLEQKNQRLKWKNQKLKQ [O4-bP] | – | – | – | – | – | – | – | – | – | – | – | – | – | – | – | – | – | – | – | – | interaction score (O5-bP): -0.998; interaction score (O4-bP): -0.959; interaction score (O9-bP): -0.425; interaction score (O6-bP): -0.676; interaction score (O7-bP): -0.866; interaction score (O8-bP): -2.5 |
| DEIAALEAEKAALEAENAALEAEIAALEG [P1-AA-1HAA-K] | 0.24 | 2.06 | 1.82 | 2.1 | 0.472 | 1.97 | 1.56 | – | – | – | – | – | – | – | – | – | – | – | – | – | – |

Now from value to binder, other results behind:

| interaction score (P2-AA-1HAA-D; mean of both orientations) | interaction score (P2-AA-1HAA-T) | interaction score (P2-AA-1HAA-I) | interaction score (P2-AA-1HAA-V) | interaction score (P2-AA-1HAA-E) | interaction score (P2-AA-1HAA-S) | interaction score (P2-AA-1HAA-R) | interaction score (4H796-bH) | interaction score (4H2859-bH) | interaction score (4H3381-bH) | interaction score (4H3297-bH) | interaction score (4H932-bH) | interaction score (4H349-bH) | interaction score (4H56-bH) | interaction score (4H949-bH) | interaction score (4H2760-bH) | interaction score (4H3041-bH) | interaction score (4H730-bH) | interaction score (4H2931-bH) | interaction score (4H3364-bH) | Binder | other results |
| --- | --- | --- | --- | --- | --- | --- | --- | --- | --- | --- | --- | --- | --- | --- | --- | --- | --- | --- | --- | --- | --- |
| – | – | – | – | – | – | – | -0.303 | 1.8 | 1.06 | 1.11 | -0.203 | 0.113 | -0.538 | -0.764 | 0.562 | 1.23 | 0.131 | 0.678 | 0.996 | DEIQELEKKIEELEREIWELEKKNQELKR [4H264-bH] | interaction score (4H264-bH): 0.678; interaction score (O8-bA): 0.091; interaction score (4H3010-bA): 1.67 |
| – | – | – | – | – | – | – | 0.41 | 0.64 | 0.571 | 1.12 | -1.86 | 0.171 | -1.85 | -0.189 | 1.46 | 0.73 | -0.92 | -0.365 | 0.427 | DKIQELKKENEELKREIWELEKKNQELKR [4H2760-bH] | interaction score (4H40-bH): -1.45; interaction score (O16-bN): 0.693; interaction score (4H4073-bA): -0.277 |
